Article PMC3347556

Biological target: Lys65 (UniProt position 65, ICSVSKQFTCA)
Experiment: kinetics
Details: 25 °C, not stated (0.1 M Tris-HCl buffer), Free enzyme (Vmax/KM profile) with D-Ala-pNA as substrate

Substance: D-aminopeptidase (DAP) (Ochrobactrum anthropi)
- pKa: 7.4
